From the RNAGym collection of RNA variant scans (doi:10.7554/elife.80360)

B1: HDV Ribozyme (parent)
chain: GGCCGGCAUGGUCCCAGCCUCCUCGCUGGCGCCGGCUGGGCAACAUUCCGAGGGGACCGUCCCCUCGGUAAUGGCGAAUGGGACCCA

Variants of: B1
Assay: self-cleavage, relative activity (ratio to wild type); higher = more cleavage; co-transcriptional

In order of falling self-cleavage:
1. AGCCGGCAUGGUCUCAGCCUCCUCGCUGGCGCCGGCUGGGCAACAUUCCGAGGGGACCGUCCCCUCGGUAAUGGCGAAUGGGACCCA [G1A C14U]  0.415
2. AGUCGGCAUGGUCCCAGCCUCCUCGCUGGCGCCGGCUGGGCAACAUUCCGAGGGGACCGUCCCCUCGGUAAUGGCGAAUGGGACCCA [G1A C3U]  0.297
3. AGCCGGCAUGGUCCCAGCCUCCUCGCUGGCGCCGGCUGGGCAACAUUCCGAGGGGACCGUCCACUCGGUAAUGGCGAAUGGGACCCA [G1A C63A]  0.289
4. AGCCGGCAUGGUCCCAGCCUCCUCGCUGGCGCCGGCUGGGCAACCUUCCGAGGGGACCGUCCCCUCGGUAAUGGCGAAUGGGACCCA [G1A A45C]  0.268
5. AGCCGGCAUGGUCCCAGCCUCCUCGCUGGCGCCGGCUGGGCAACAUUCCGAGGGGACCGUUCCCUCGGUAAUGGCGAAUGGGACCCA [G1A C61U]  0.26
6. AGCCGGCAUGGUCCCAGCCUCCUCGCUGGCGCCGGCUGGGUAACAUUCCGAGGGGACCGUCCCCUCGGUAAUGGCGAAUGGGACCCA [G1A C41U]  0.237
7. AGCCGGCAUGGUCCCAGCCUCCUCGCUGGCGCCGGCUGGGCAACAUUCCGAGGGGACCGUCCCCUCGGUAAUGGCGGAUGGGACCCA [G1A A77G]  0.237
8. AGCCGGCAUGGUCCCAGCCUCCUCGCUGGCGCCGGCUGGGAAACAUUCCGAGGGGACCGUCCCCUCGGUAAUGGCGAAUGGGACCCA [G1A C41A]  0.222
9. AGCCGGCAUGGUCCCAGCCUCCUCGCUGGCGCCGGCUGGGCAACAUUCCGAGGGGACCGUCCCCUCGGUAAUGGCGAAUGGGGCCCA [G1A A83G]  0.219
10. AGCCGGCAUGGUCCCAGCCUCCUCGCUGGCGCCGGCUGGGCAACAUUCCGAGGGGUCCGUCCCCUCGGUAAUGGCGAAUGGGACCCA [G1A A56U]  0.217
11. AGCCGGCAUGGUCCCAGCCUCCUCGCUGGCGCCGGCUGGGCAACAUUCCGAGGGGAACGUCCCCUCGGUAAUGGCGAAUGGGACCCA [G1A C57A]  0.208
12. AGCCGGCAUGGUCCCAGCCUCCUCGCUGGCGCCGGCUGGGCAACAUUGCGAGGGGACCGUCCCCUCGGUAAUGGCGAAUGGGACCCA [G1A C48G]  0.199
13. AGCCGGCAUGGUCCCAGCCUCCUCGCUGGCGCCGGCUGGGCAACAUUCCGAGGGGACCGUCCCCUCGGUCAUGGCGAAUGGGACCCA [G1A A70C]  0.192
14. AGCCGGCAUGGUCCCAGCCUCCUCGCUGGCGCCGGCUGGGCAACGUUCCGAGGGGACCGUCCCCUCGGUAAUGGCGAAUGGGACCCA [G1A A45G]  0.185
15. AGCAGGCAUGGUCCCAGCCUCCUCGCUGGCGCCGGCUGGGCAACAUUCCGAGGGGACCGUCCCCUCGGUAAUGGCGAAUGGGACCCA [G1A C4A]  0.166
16. AGCCGGCAUGGUCCCCGCCUCCUCGCUGGCGCCGGCUGGGCAACAUUCCGAGGGGACCGUCCCCUCGGUAAUGGCGAAUGGGACCCA [G1A A16C]  0.158
17. AGCCGGCAUGGUCCCAGCCUCCUCGCUGGCGCCGGAUGGGCAACAUUCCGAGGGGACCGUCCCCUCGGUAAUGGCGAAUGGGACCCA [G1A C36A]  0.154
18. AGCCGGCAUGGUCCCAGCCUCCUCGCUGGCGCCGGCUGGGCAACAUUCCGAGGGGACCGUACCCUCGGUAAUGGCGAAUGGGACCCA [G1A C61A]  0.145
19. AGCCGGCAUGGUCCCAGCCUCCUCGCUGGCGCCGGCUGGGCAACAUUCCGAGGGGACCGUCCCCUCGGUAAUGGCGAAUGGGACCCG [G1A A87G]  0.141
20. AGCCGGCAUGGUCCCAGCCUCCUCGCUGGCGUCGGCUGGGCAACAUUCCGAGGGGACCGUCCCCUCGGUAAUGGCGAAUGGGACCCA [G1A C32U]  0.133
21. AGCCGGCAUGGUCCCAGCCUUCUCGCUGGCGCCGGCUGGGCAACAUUCCGAGGGGACCGUCCCCUCGGUAAUGGCGAAUGGGACCCA [G1A C21U]  0.121
22. AGCCGGCAUGGUCCCAGCCUCCUAGCUGGCGCCGGCUGGGCAACAUUCCGAGGGGACCGUCCCCUCGGUAAUGGCGAAUGGGACCCA [G1A C24A]  0.119
23. AGCCGGCAUGGUCCCAGCCUCCUCGAUGGCGCCGGCUGGGCAACAUUCCGAGGGGACCGUCCCCUCGGUAAUGGCGAAUGGGACCCA [G1A C26A]  0.119
24. AGCCGGCAUGGUUCCAGCCUCCUCGCUGGCGCCGGCUGGGCAACAUUCCGAGGGGACCGUCCCCUCGGUAAUGGCGAAUGGGACCCA [G1A C13U]  0.119
25. AGCCGGCAUGGUCCCAGCCUCCUCGCUGGCGCCGGGUGGGCAACAUUCCGAGGGGACCGUCCCCUCGGUAAUGGCGAAUGGGACCCA [G1A C36G]  0.119
26. AGCCGGCAUGGUCCCAGCCUCCUCGCUGGCGCCGGCUGGGCGACAUUCCGAGGGGACCGUCCCCUCGGUAAUGGCGAAUGGGACCCA [G1A A42G]  0.115
27. AGCCGGCAUGGUCCCAGCCUCCUCGCUGGCGGCGGCUGGGCAACAUUCCGAGGGGACCGUCCCCUCGGUAAUGGCGAAUGGGACCCA [G1A C32G]  0.113
28. AGCCGGCAUGGUCCCAGCCUCCUUGCUGGCGCCGGCUGGGCAACAUUCCGAGGGGACCGUCCCCUCGGUAAUGGCGAAUGGGACCCA [G1A C24U]  0.111
29. AGCCGGCAUGGUCCCAGCCUCCUCGCUGGCGCCGGCUGGGCAACAUUCCGAGGGGCCCGUCCCCUCGGUAAUGGCGAAUGGGACCCA [G1A A56C]  0.107
30. AGCCGGCAUGGUCCCAGCCUCCUCGCUGGCGCCGGCUGGGCAACAUUCCGAGGGGACCGUCCCCUCGGUAGUGGCGAAUGGGACCCA [G1A A71G]  0.104
31. AGCCGGCAUGGUCCCAGCCUACUCGCUGGCGCCGGCUGGGCAACAUUCCGAGGGGACCGUCCCCUCGGUAAUGGCGAAUGGGACCCA [G1A C21A]  0.104
32. AGCCGGCAUGGUCCCAGCUUCCUCGCUGGCGCCGGCUGGGCAACAUUCCGAGGGGACCGUCCCCUCGGUAAUGGCGAAUGGGACCCA [G1A C19U]  0.101
33. AGCCGGCAUGGUCCCAGCCUCCUCGCUGGCGCCGGCUGGGCAGCAUUCCGAGGGGACCGUCCCCUCGGUAAUGGCGAAUGGGACCCA [G1A A43G]  0.0875
34. AGCCGGCAUGGUCCCAGCCUCCUCGCUGGCGCCGGCUGGGCAACAUUCCGAGGGGACCGUGCCCUCGGUAAUGGCGAAUGGGACCCA [G1A C61G]  0.0831
35. AGCCGGCAUGGUCCCAGCCUCAUCGCUGGCGCCGGCUGGGCAACAUUCCGAGGGGACCGUCCCCUCGGUAAUGGCGAAUGGGACCCA [G1A C22A]  0.0831
36. AGCCGGCAUGGUCCCAGCCUCCUCGCUGGCGCCGGCUGGGCAACAUUCCGAGGGGACCGUCACCUCGGUAAUGGCGAAUGGGACCCA [G1A C62A]  0.0791
37. AGCCGGCAUGGUCCCAGCCUCUUCGCUGGCGCCGGCUGGGCAACAUUCCGAGGGGACCGUCCCCUCGGUAAUGGCGAAUGGGACCCA [G1A C22U]  0.0779
38. AGCCGGCAUGGUCCCAGCAUCCUCGCUGGCGCCGGCUGGGCAACAUUCCGAGGGGACCGUCCCCUCGGUAAUGGCGAAUGGGACCCA [G1A C19A]  0.0744
39. AGCCGGCAUGGUACCAGCCUCCUCGCUGGCGCCGGCUGGGCAACAUUCCGAGGGGACCGUCCCCUCGGUAAUGGCGAAUGGGACCCA [G1A C13A]  0.0639
40. AGCCGGCAUGGUCCCAGCCUCCUCGCUGGCGCUGGCUGGGCAACAUUCCGAGGGGACCGUCCCCUCGGUAAUGGCGAAUGGGACCCA [G1A C33U]  0.0594
41. AGCCGGCAUGGUCACAGCCUCCUCGCUGGCGCCGGCUGGGCAACAUUCCGAGGGGACCGUCCCCUCGGUAAUGGCGAAUGGGACCCA [G1A C14A]  0.0573
42. AGCCGGCAUGGUCCCAGCCUCCUCGCUGGUGCCGGCUGGGCAACAUUCCGAGGGGACCGUCCCCUCGGUAAUGGCGAAUGGGACCCA [G1A C30U]  0.0554
43. AGCCGGCAUGGUCCCAGCCUCCUCGCUGGCGCCGGCUGGGCAACAUUCCGAGGGGACCGUCGCCUCGGUAAUGGCGAAUGGGACCCA [G1A C62G]  0.0519
44. AGCCGGCAUGGUCCCAGCCUCCUCGCUGGCGCCGGCUGGGCAACAUUCCGAGGGGACCGUCCCCUCGGUAAUGGCGAUUGGGACCCA [G1A A78U]  0.0449
45. AGCCGGCAUGGUCCCAGCCUCCUCGCUGGCGCCGGCUGGGCAUCAUUCCGAGGGGACCGUCCCCUCGGUAAUGGCGAAUGGGACCCA [G1A A43U]  0.0437
46. AGCCGGCAUGGUCCCAGCCUCCUCGCUGGCGCCGGCUGGGCACCAUUCCGAGGGGACCGUCCCCUCGGUAAUGGCGAAUGGGACCCA [G1A A43C]  0.0415
47. AGCCGGGAUGGUCCCAGCCUCCUCGCUGGCGCCGGCUGGGCAACAUUCCGAGGGGACCGUCCCCUCGGUAAUGGCGAAUGGGACCCA [G1A C7G]  0.0405
48. AGCCGGCAUGGUCCCAGCCUCCUCGCUGGCGACGGCUGGGCAACAUUCCGAGGGGACCGUCCCCUCGGUAAUGGCGAAUGGGACCCA [G1A C32A]  0.0386
49. AGCCGGCAUGGUCCCAGCCUCCUCGGUGGCGCCGGCUGGGCAACAUUCCGAGGGGACCGUCCCCUCGGUAAUGGCGAAUGGGACCCA [G1A C26G]  0
50. AGCCGGCAUGGUCCCAGCCUCCUCGUUGGCGCCGGCUGGGCAACAUUCCGAGGGGACCGUCCCCUCGGUAAUGGCGAAUGGGACCCA [G1A C26U]  0
51. AGCCGGCAUGGUCCCAGCCUCCUCGCUGGCGCCGGCUGGGCAACAUUCCGGGGGGACCGUCCCCUCGGUAAUGGCGAAUGGGACCCA [G1A A51G]  0
52. AGCCGGCAUGGUCCCAGCCUCCUCGCUGGCGCCGGCUGGGCAACAUUCCGAGGGGACCGUCCCCUCGGUAAUGGCGAGUGGGACCCA [G1A A78G]  0
53. AGCCGGCAUGGUCCCAGCCUCCUCGCUGGCGCCGGCUGGGCAACAUUCCGAGGGGAGCGUCCCCUCGGUAAUGGCGAAUGGGACCCA [G1A C57G]  0
54. AGCCGGCAUGGUGCCAGCCUCCUCGCUGGCGCCGGCUGGGCAACAUUCCGAGGGGACCGUCCCCUCGGUAAUGGCGAAUGGGACCCA [G1A C13G]  0
55. AGCCGGCAUGGUCCCAGCCUCCUCGCUGGCGCCGGCUGGGCAACAUUUCGAGGGGACCGUCCCCUCGGUAAUGGCGAAUGGGACCCA [G1A C48U]  0
56. AGCCGGCAUGGUCCCAGCCUCCUCGCUGGCGCCGGCUGGGCAACAUUCCGAGGGGACCGUCCCCUCGGUUAUGGCGAAUGGGACCCA [G1A A70U]  0
57. AGCCGGCAUGGUCCGAGCCUCCUCGCUGGCGCCGGCUGGGCAACAUUCCGAGGGGACCGUCCCCUCGGUAAUGGCGAAUGGGACCCA [G1A C15G]  0
58. AGCCGGCAUGGUCCCAGCCUCCUCGCUGGCGCCGGCUGGGCAACAUUCUGAGGGGACCGUCCCCUCGGUAAUGGCGAAUGGGACCCA [G1A C49U]  0
59. AGCCGGCAUGGUCCCAGCCUCCUCGCUGGGGCCGGCUGGGCAACAUUCCGAGGGGACCGUCCCCUCGGUAAUGGCGAAUGGGACCCA [G1A C30G]  0
60. AGCCGGCAUGGUCCCUGCCUCCUCGCUGGCGCCGGCUGGGCAACAUUCCGAGGGGACCGUCCCCUCGGUAAUGGCGAAUGGGACCCA [G1A A16U]  0
61. AGCCGGCAUGGUCCCAGCCUCCUCGCUGGCGCCGGCUGGGCAACAUUCCGAGGGGGCCGUCCCCUCGGUAAUGGCGAAUGGGACCCA [G1A A56G]  0
62. AGCCGGCCUGGUCCCAGCCUCCUCGCUGGCGCCGGCUGGGCAACAUUCCGAGGGGACCGUCCCCUCGGUAAUGGCGAAUGGGACCCA [G1A A8C]  0
63. AGCCGGCAUGGUCCCAGCCUCCUCGCUGGCGCCGGCUGGGCAACAUUCCGAGGGGACCGUCCCCUCGGUAAUGGCGUAUGGGACCCA [G1A A77U]  0
64. AGCCGGCAUGGUCCCAGCCUCCUCGCUGGCGCCGGCUGGGCAACAUUCCGAGGGGACCGUCCCCUCGGUAAUGGCGAAUGGGUCCCA [G1A A83U]  0
